± gives the standard error. For some assays here: Fewer inactive variants are shown than the library holds.
B1: glmS ribozyme (parent)
chain: AUAAAAGCGCCAGAACUACAGAAAUGUAGUUGACGAGGAGGAGGUUUAUCGAAUUUUCGGCGGAUGCCUCCAAA

Assays:
Settings in all cases: with glucosamine-6-phosphate
glucosamine-6-phosphate [1] = variants of: B1; assay: kcat; higher = faster cleavage; RNA array
Summary of the method: (§1)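 Weighted Michaelis–Menten fits across concentrations supplied kcat and KM, based on kobs from one- or two-exponential decay fits to normalised per-tile medians. The data came from barcoded ribozyme variants transcribed in situ by E. coli RNA polymerase on sequenced MiSeq chips and tracked at 37 °C by a hybridised Cy3 probe. Glucosamine-6-phosphate (40 μM to 10 mM) in HEPES/KCl/Mg(OAc)2 buffer was flowed in.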

glucosamine-6-phosphate [2] = variants of: B1; assay: self-cleavage kobs at 640 uM GlcN6P; higher = faster cleavage; RNA array
Summary of the method: as §1

glucosamine-6-phosphate [3] = variants of: B1; assay: self-cleavage kobs at 2500 uM GlcN6P; higher = faster cleavage; RNA array
Summary of the method: as §1

glucosamine-6-phosphate [4] = variants of: B1; assay: self-cleavage kobs at 10000 uM GlcN6P; higher = faster cleavage; RNA array
Summary of the method: as §1

glucosamine-6-phosphate [5] = variants of: B1; assay: KM; higher = weaker cofactor use; RNA array
Summary of the method: as §1

glucosamine-6-phosphate [6] = variants of: B1; assay: self-cleavage kobs at 160 uM GlcN6P; higher = faster cleavage; RNA array
Summary of the method: as §1

glucosamine-6-phosphate [7] = variants of: B1; assay: self-cleavage kobs at 40 uM GlcN6P; higher = faster cleavage; RNA array
Summary of the method: as §1

| Variant | kcat (glucosamine-6-phosphate [1]) | self-cleavage kobs at 640 uM GlcN6P (glucosamine-6-phosphate [2]) | self-cleavage kobs at 2500 uM GlcN6P (glucosamine-6-phosphate [3]) | self-cleavage kobs at 10000 uM GlcN6P (glucosamine-6-phosphate [4]) | KM (glucosamine-6-phosphate [5]) | self-cleavage kobs at 160 uM GlcN6P (glucosamine-6-phosphate [6]) | self-cleavage kobs at 40 uM GlcN6P (glucosamine-6-phosphate [7]) |
| --- | --- | --- | --- | --- | --- | --- | --- |
| AUAAAAGCGCCAGAACUACAGAAAUGUAGUUAACGAGGAGGAGGUUUAUCGAAUUUUAGGCGGAUGCUUCCAAA [G32A C58A C68U] | 0.000878 ± 0.00034 s⁻¹ | 8.56e-05 ± 1.4e-05 s⁻¹ | 0.000172 ± 7.4e-05 s⁻¹ | 0.000572 ± 0.00012 s⁻¹ |  |  |  |
| AUAAAAGCGCCAGAACUACAGAAAUGUAGUUAACGAGGAGGAGGUUUAUCGAAUUUUCGGCGGAUGUCUCCAAA [G32A C67U] | 0.000858 ± 0.0002 s⁻¹ | 0.00023 ± 2.1e-05 s⁻¹ | 0.000374 ± 4.7e-05 s⁻¹ | 0.000854 ± 8.5e-05 s⁻¹ | 1940 ± 760 µM | 7.5e-05 ± 1.5e-05 s⁻¹ |  |
| AUAAAAGCGCCAGAACUACAGAAAUGUAGUUAACGAGGAGGAGGUUUAUUGAAUUUUCGGCGGAUGCCUACAAA [G32A C50U C70A] | 3.48e-05 ± 1.3e-05 s⁻¹ |  | 5.7e-05 ± 1.9e-05 s⁻¹ |  |  |  |  |
| AUAAAAGCGCCAGAACUACAGAAAUGUAGUUAACGAGGAGGAGGUUUAUCGAAUUUUCGGCGGAUGUCUCGAAA [G32A C67U C71G] | 8.98e-05 ± 2.5e-05 s⁻¹ | 0.000178 ± 4.1e-05 s⁻¹ | 9.42e-05 ± 2.9e-05 s⁻¹ | 5.54e-05 ± 2.2e-05 s⁻¹ |  | 9.79e-05 ± 2.3e-05 s⁻¹ | 5.63e-05 ± 2.5e-05 s⁻¹ |
| AUAAAAGCGCCAGAACUACAGAAAUGUAGUUAACGAGGAGGAGGUUUAUCGAAUUUUCGGCGGAUGCCUCAAAA [G32A C71A] | 0.000628 ± 0.00012 s⁻¹ | 0.000112 ± 1.6e-05 s⁻¹ | 0.000293 ± 4.5e-05 s⁻¹ | 0.00052 ± 6e-05 s⁻¹ | 2570 ± 890 µM | 5.89e-05 ± 1.2e-05 s⁻¹ |  |
| AUAAAAGCGCCAGAACUACAGAAAUGUAGUUAACGAGGAGGAGGUUUAUCGAAUUUUCGGCGGAUGCCUCUAAA [G32A C71U] | 0.00395 ± 0.001 s⁻¹ | 0.000487 ± 4.1e-05 s⁻¹ | 0.00122 ± 0.00011 s⁻¹ | 0.00326 ± 0.00033 s⁻¹ | 4470 ± 1500 µM | 0.000159 ± 1.6e-05 s⁻¹ | 3.68e-05 ± 5.2e-06 s⁻¹ |
| AUAAAAGCGCCAGAACUACAGAAAUGUAGUUAACGAGGAGGAGGUUUAUCGAAUUUUCGGAGGAUGCCUCCAAA [G32A C61A] | < 1e-05 s⁻¹ |  |  |  |  |  |  |
| AUAAAAGCGCCAGAACUACAGAAAUGUAGUUAACGAGGAGGAGGUUUAUCGAAUUUUUGGCGGAUGCCUCCAAA [G32A C58U] | 6.81e-05 ± 1.1e-05 s⁻¹ | 3.37e-05 ± 1.6e-05 s⁻¹ | 4.13e-05 ± 1.1e-05 s⁻¹ | 6.46e-05 ± 1.3e-05 s⁻¹ |  |  | < 1e-05 s⁻¹ |
| AUAAAAGCGCCAGAACUACAGAAAUGUAGUUAACGAGGAGGAGGUUUAUCGAAUUUUCGGCGGAUGCAUCCAAA [G32A C68A] | 1.56e-05 ± 4.4e-06 s⁻¹ |  |  |  |  |  |  |

From the supplement of paper PMC7125110
